T1: G9a and GLP (Homo sapiens, UniProt Q96KQ7+Q9H9B1)
T1 sequence (Q96KQ7 2-1210 limits assumed): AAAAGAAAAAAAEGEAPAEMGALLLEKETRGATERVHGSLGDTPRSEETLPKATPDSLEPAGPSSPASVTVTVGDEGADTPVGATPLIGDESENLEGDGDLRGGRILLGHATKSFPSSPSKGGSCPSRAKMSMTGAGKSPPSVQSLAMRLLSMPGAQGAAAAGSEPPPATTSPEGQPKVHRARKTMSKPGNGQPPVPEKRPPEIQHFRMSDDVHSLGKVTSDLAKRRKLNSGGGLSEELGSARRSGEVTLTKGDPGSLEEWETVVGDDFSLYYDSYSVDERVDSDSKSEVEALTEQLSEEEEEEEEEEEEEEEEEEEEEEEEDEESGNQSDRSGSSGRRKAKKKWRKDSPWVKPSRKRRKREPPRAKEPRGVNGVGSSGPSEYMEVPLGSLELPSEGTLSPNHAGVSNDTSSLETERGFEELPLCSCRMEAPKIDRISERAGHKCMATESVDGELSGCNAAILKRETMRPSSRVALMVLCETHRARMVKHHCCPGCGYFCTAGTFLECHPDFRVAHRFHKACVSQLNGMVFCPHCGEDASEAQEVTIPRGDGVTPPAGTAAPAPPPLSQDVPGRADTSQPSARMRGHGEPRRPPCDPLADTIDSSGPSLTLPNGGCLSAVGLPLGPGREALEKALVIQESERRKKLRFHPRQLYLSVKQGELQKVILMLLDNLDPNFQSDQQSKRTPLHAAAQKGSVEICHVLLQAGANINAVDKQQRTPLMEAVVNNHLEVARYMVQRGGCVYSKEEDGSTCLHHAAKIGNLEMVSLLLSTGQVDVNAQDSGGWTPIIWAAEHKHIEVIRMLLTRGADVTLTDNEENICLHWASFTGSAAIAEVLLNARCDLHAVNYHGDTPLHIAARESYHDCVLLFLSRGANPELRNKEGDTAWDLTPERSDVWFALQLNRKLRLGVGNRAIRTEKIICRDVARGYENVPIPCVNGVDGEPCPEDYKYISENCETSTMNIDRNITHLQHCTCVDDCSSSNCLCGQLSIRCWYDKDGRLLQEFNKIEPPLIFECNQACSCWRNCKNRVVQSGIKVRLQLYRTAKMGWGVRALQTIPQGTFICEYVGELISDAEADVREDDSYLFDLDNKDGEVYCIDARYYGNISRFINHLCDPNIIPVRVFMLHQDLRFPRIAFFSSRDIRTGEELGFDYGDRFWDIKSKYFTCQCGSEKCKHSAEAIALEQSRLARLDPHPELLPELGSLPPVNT
T1 sequence (Q9H9B1 2-1298 limits assumed): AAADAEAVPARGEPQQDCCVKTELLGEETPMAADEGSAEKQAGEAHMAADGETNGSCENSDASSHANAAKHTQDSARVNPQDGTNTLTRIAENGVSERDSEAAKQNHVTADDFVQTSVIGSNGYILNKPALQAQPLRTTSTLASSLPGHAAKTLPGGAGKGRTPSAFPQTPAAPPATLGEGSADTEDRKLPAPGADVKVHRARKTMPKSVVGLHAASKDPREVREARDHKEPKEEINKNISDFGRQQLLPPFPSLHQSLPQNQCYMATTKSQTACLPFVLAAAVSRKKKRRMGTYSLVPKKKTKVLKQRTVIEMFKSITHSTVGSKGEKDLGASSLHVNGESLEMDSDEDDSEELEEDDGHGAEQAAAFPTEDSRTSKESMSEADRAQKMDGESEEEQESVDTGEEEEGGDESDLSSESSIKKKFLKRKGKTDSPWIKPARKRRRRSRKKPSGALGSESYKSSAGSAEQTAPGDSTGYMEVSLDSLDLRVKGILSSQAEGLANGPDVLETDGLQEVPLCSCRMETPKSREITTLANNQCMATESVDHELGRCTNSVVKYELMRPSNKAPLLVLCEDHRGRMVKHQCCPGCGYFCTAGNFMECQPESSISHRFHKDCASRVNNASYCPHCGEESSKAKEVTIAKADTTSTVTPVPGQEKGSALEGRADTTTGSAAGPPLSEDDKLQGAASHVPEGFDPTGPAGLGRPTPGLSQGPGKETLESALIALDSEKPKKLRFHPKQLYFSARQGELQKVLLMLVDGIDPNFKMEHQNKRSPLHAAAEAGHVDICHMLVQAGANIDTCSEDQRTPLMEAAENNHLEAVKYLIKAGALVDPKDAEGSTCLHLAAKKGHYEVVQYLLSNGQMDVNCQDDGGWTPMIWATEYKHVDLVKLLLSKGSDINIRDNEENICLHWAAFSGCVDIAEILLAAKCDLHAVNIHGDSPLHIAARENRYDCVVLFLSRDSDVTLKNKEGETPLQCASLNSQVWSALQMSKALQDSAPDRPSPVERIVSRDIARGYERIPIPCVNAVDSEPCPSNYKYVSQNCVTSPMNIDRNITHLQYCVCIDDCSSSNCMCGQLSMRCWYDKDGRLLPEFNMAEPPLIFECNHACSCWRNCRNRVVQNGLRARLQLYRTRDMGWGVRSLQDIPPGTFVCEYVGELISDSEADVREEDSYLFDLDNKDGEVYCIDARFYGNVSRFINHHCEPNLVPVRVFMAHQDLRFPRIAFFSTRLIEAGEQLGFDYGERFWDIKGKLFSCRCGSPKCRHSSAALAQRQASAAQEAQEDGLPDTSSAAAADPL


What was measured:
3×MBT domain of L3MBTL1 = assay: Triple SILAC pull-down, 3xMBT/3xMBTD355N ratio (cytoplasmic, nuclear and chromatin fractions of 293T cells); format: binding, human; details: SILAC ratio 3xMBT vs 3xMBTD355N pull-down, 293T cells, all values in log base 2; for 3xMBT/D355N UNC Heavy: experiment with UNC0638 in heavy SILAC media; for 3xMBT/D355N UNC Light: experiment with UNC0638 in light SILAC media;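 on all read-outs here: proteins quantified with MaxQuant, requiring at least two unique peptides and quantification in both label directions, normalized to the mean of proteins from a digested loading control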
G9a and GLP = biological target: T1, G9a and GLP; assay: Triple SILAC pull-down after UNC0638 treatment of 293T cells, DMSO/UNC0638 ratio of protein captured by 3×MBT; format: cell-based; set-up: cells were treated for 24 hours with UNC0638 at 2.5 μM or DMSO vehicle control; endogenous in cells; host or cells: HEK 293T; details: all values in log base 2; for Relative to UNC0638 UNC Heavy / Relative to UNC0638 UNC Light: SILAC ratio DMSO relative to UNC0638, pull-down with 3xMBT; for Relative to UNC0638 UNC Heavy: UNC0638 in heavy SILAC media; for Relative to UNC0638 UNC Light: UNC0638 in light SILAC media; for Relative to UNC0638 Average: average of UNC Light and UNC Heavy experiments;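 on all read-outs here: mass spectrometry (Q-Exactive) SILAC quantitation, DMSO/UNC0638 ratio computed after subtracting 3×MBTD355N mutant pull-down background, only proteins with at least twofold 3×MBT over mutant signal considered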

Row | Relative to UNC0638 UNC Heavy (G9a and GLP) | Relative to UNC0638 UNC Light (G9a and GLP) | Relative to UNC0638 Average (G9a and GLP) | Molecule | 3xMBT/D355N UNC Heavy (3×MBT domain of L3MBTL1) | 3xMBT/D355N UNC Light (3×MBT domain of L3MBTL1)
1 | 0.01 log base 2 | −0.64 log base 2 | −0.31 log base 2 | EEF1B2 (protein, UniProt P24534 2-225, looked up) Elongation factor 1-beta: GFGDLKSPAGLQVLNDYLADKSYIEGYVPSQADVAVFEAVSSPPPADLCHALRWYNHIKSYEKEKASLPGVKKALGKYGPADVEDTTGSGATDSKDDDDIDLFGSDDEEESEEAKRLREERLAQYESKKAKKPALVAKSSILLDVKPWDDETDMAKLEECVRSIQADGLVWGSSKLVPVGYGIKKLQIQCVVEDDKVGTDMLEEQITAFEDYVQSMDVAAFNKI | −0.81 log base 2 | −0.32 log base 2
2 | 0.47 log base 2 | −1.35 log base 2 | −0.44 log base 2 | DUSP3 (protein, UniProt P51452 1-185, looked up) Dual specificity protein …: MSGSFELSVQDLNDLLSDGSGCYSLPSQPCNEVTPRIYVGNASVAQDIPKLQKLGITHVLNAAEGRSFMHVNTNANFYKDSGITYLGIKANDTQEFNLSAYFERAADFIDQALAQKNGRVLVHCREGYSRSPTLVIAYLMMRQKMDVKSALSIVRQNREIGPNDGFLAQLCQLNDRLAKEGKLKP | 1.97 log base 2 | 1.19 log base 2
3 | −0.45 log base 2 |  | −0.45 log base 2 | SERBP1 (protein, UniProt Q8NC51 2-408, looked up) SERPINE1 mRNA-binding protein …: PGHLQEGFGCVVTNRFDQLFDDESDPFEVLKAAENKKKEAGGGGVGGPGAKSAAQAAAQTNSNAAGKQLRKESQKDRKNPLPPSVGVVDKKEETQPPVALKKEGIRRVGRRPDQQLQGEGKIIDRRPERRPPRERRFEKPLEEKGEGGEFSVDRPIIDRPIRGRGGLGRGRGGRGRGMGRGDGFDSRGKREFDRHSGSDRSSFSHYSGLKHEDKRGGSGSHNWGTVKDELTESPKYIQKQISYNYSDLDQSNVTEETPEGEEHHPVADTENKENEVEEVKEEGPKEMTLDEWKAIQNKDRAKVEFNIRKPNEGADGQWKKGFVLHKSKSEEAHAEDSVMDHHFRKPANDITSQLEINFGDLGRPGRGGRGGRGGRGRGGRPNRGSRTDKSSASAPDVDDPEAFPALA | −0.66 log base 2 | −0.06 log base 2
4 | −0.05 log base 2 | −0.26 log base 2 | −0.16 log base 2 | LANCL2 (protein, UniProt Q9NS86 2-450, looked up) LanC-like protein 2: GETMSKRLKLHLGGEAEMEERAFVNPFPDYEAAAGALLASGAAEETGCVRPPATTDEPGLPFHQDGKIIHNFIRRIQTKIKDLLQQMEEGLKTADPHDCSAYTGWTGIALLYLQLYRVTCDQTYLLRSLDYVKRTLRNLNGRRVTFLCGDAGPLAVGAVIYHKLRSDCESQECVTKLLQLQRSVVCQESDLPDELLYGRAGYLYALLYLNTEIGPGTVCESAIKEVVNAIIESGKTLSREERKTERCPLLYQWHRKQYVGAAHGMAGIYYMLMQPAAKVDQETLTEMVKPSIDYVRHKKFRSGNYPSSLSNETDRLVHWCHGAPGVIHMLMQAYKVFKEEKYLKEAMECSDVIWQRGLLRKGYGICHGTAGNGYSFLSLYRLTQDKKYLYRACKFAEWCLDYGAHGCRIPDRPYSLFEGMAGAIHFLSDVLGPETSRFPAFELDSSKRD | 1.44 log base 2 | 1.81 log base 2
5 | −2.12 log base 2 | 0.06 log base 2 | −1.03 log base 2 | ORC5 (protein, UniProt O43913 1-435, looked up) Origin recognition complex …: MPHLENVVLCRESQVSILQSLFGERHHFSFPSIFIYGHTASGKTYVTQTLLKTLELPHVFVNCVECFTLRLLLEQILNKLNHLSSSEDGCSTEITCETFNDFVRLFKQVTTAENLKDQTVYIVLDKAEYLRDMEANLLPGFLRLQELADRNVTVLFLSEIVWEKFRPNTGCFEPFVLYFPDYSIGNLQKILSHDHPPEYSADFYAAYINILLGVFYTVCRDLKELRHLAVLNFPKYCEPVVKGEASERDTRKLWRNIEPHLKKAMQTVYLREISSSQWEKLQKDDTDPGQLKGLSAHTHVELPYYSKFILIAAYLASYNPARTDKRFFLKHHGKIKKTNFLKKHEKTSNHLLGPKPFPLDRLLAILYSIVDSRVAPTANIFSQITSLVTLQLLTLVGHDDQLDGPKYKCTVSLDFIRAIARTVNFDIIKYLYDFL | 1.97 log base 2 | 2.52 log base 2

Reference: patent US20140274782A1, “AFFINITY REAGENTS AND METHODS FOR DETECTION, PURIFICATION, AND PROTEOMIC ANALYSIS OF METHYLATED PROTEINS” (The Board of Trustees of the Leland Stanford Junior …, priority 2013, published 2014)
